Test results reported in patent US20130336893A1 (Sanofi, published 2013).
*1 amine or outer side, *2 acyl side, *3 side chain or, on linkers, in order; H or OH if unused. Where no end group is shown, it is not given here. Side-chain parts run from the residue outwards. [ ]: non-standard residue; d: D form. The star is where a group is joined. γGlu = O=C(O)[C@H](CCC(=O)[*:2])N[*:1]; Palmitoyl = CCCCCCCCCCCCCCCC(=O)*; Aib = CC(C)(N)C(=O)O

Experiments:
human GLP-1 receptor = human GLP-1 receptor (human, UniProt P43220 24-463); experiment: cell-based or functional assay
human glucagon receptor = human glucagon receptor (human, UniProt P47871 26-477); experiment: cell-based or functional assay
Sequence of human glucagon receptor (P47871 26-477): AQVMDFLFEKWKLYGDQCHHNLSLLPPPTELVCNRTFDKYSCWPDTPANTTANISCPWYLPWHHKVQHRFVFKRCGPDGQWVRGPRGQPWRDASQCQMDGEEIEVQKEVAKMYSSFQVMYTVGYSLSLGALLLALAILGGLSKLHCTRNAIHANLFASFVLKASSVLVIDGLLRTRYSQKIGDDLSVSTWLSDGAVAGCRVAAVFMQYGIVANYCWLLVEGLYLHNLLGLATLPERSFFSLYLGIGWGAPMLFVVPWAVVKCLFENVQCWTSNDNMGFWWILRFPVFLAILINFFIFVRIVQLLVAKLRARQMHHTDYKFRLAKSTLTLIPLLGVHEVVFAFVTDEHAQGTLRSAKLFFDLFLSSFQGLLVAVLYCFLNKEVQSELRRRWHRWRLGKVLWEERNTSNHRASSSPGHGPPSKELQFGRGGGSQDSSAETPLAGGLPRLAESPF

B1: SEQ ID NO: (75) (peptide)
peptide: H[dS]QGTFTSDLSKQMESRRAQDFIEWLKRGGPSSGAPPPSK([γGlu-Palmitoyl])-NH2
modifications: N-terminus assumed
SMILES: CCCCCCCCCCCCCCCC(=O)N[C@@H](CCC(=O)NCCCC[C@H](NC(=O)[C@H](CO)NC(=O)[C@@H]1CCCN1C(=O)[C@@H]1CCCN1C(=O)[C@@H]1CCCN1C(=O)[C@H](C)NC(=O)CNC(=O)[C@H](CO)NC(=O)[C@H](CO)NC(=O)[C@@H]1CCCN1C(=O)CNC(=O)CNC(=O)[C@H](CCCNC(=N)N)NC(=O)[C@H](CCCCN)NC(=O)[C@H](CC(C)C)NC(=O)[C@H](Cc1c[nH]c2ccccc12)NC(=O)[C@H](CCC(=O)O)NC(=O)[C@@H](NC(=O)[C@H](Cc1ccccc1)NC(=O)[C@H](CC(=O)O)NC(=O)[C@H](CCC(N)=O)NC(=O)[C@H](C)NC(=O)[C@H](CCCNC(=N)N)NC(=O)[C@H](CCCNC(=N)N)NC(=O)[C@H](CO)NC(=O)[C@H](CCC(=O)O)NC(=O)[C@H](CCSC)NC(=O)[C@H](CCC(N)=O)NC(=O)[C@H](CCCCN)NC(=O)[C@H](CO)NC(=O)[C@H](CC(C)C)NC(=O)[C@H](CC(=O)O)NC(=O)[C@H](CO)NC(=O)[C@@H](NC(=O)[C@H](Cc1ccccc1)NC(=O)[C@@H](NC(=O)CNC(=O)[C@H](CCC(N)=O)NC(=O)[C@@H](CO)NC(=O)[C@@H](N)Cc1c[nH]cn1)[C@@H](C)O)[C@@H](C)O)[C@@H](C)CC)C(N)=O)C(=O)O
B1 was tested, and the “EC50 hGLP-1R (cAMP formation)” value (human GLP-1 receptor) was 0.0046 nM and the “EC50 hGlucagonR (cAMP formation)” value (human glucagon receptor) was 0.0641 nM.

B2: SEQ ID NO: (76) (peptide)
peptide: H[dS]QGTFTSDLSKQMESRRAQDFIEWLKR[dA]GPSSGAPPPSK([γGlu-Palmitoyl])-NH2
modifications: N-terminus assumed
SMILES: CCCCCCCCCCCCCCCC(=O)N[C@@H](CCC(=O)NCCCC[C@H](NC(=O)[C@H](CO)NC(=O)[C@@H]1CCCN1C(=O)[C@@H]1CCCN1C(=O)[C@@H]1CCCN1C(=O)[C@H](C)NC(=O)CNC(=O)[C@H](CO)NC(=O)[C@H](CO)NC(=O)[C@@H]1CCCN1C(=O)CNC(=O)[C@@H](C)NC(=O)[C@H](CCCNC(=N)N)NC(=O)[C@H](CCCCN)NC(=O)[C@H](CC(C)C)NC(=O)[C@H](Cc1c[nH]c2ccccc12)NC(=O)[C@H](CCC(=O)O)NC(=O)[C@@H](NC(=O)[C@H](Cc1ccccc1)NC(=O)[C@H](CC(=O)O)NC(=O)[C@H](CCC(N)=O)NC(=O)[C@H](C)NC(=O)[C@H](CCCNC(=N)N)NC(=O)[C@H](CCCNC(=N)N)NC(=O)[C@H](CO)NC(=O)[C@H](CCC(=O)O)NC(=O)[C@H](CCSC)NC(=O)[C@H](CCC(N)=O)NC(=O)[C@H](CCCCN)NC(=O)[C@H](CO)NC(=O)[C@H](CC(C)C)NC(=O)[C@H](CC(=O)O)NC(=O)[C@H](CO)NC(=O)[C@@H](NC(=O)[C@H](Cc1ccccc1)NC(=O)[C@@H](NC(=O)CNC(=O)[C@H](CCC(N)=O)NC(=O)[C@@H](CO)NC(=O)[C@@H](N)Cc1c[nH]cn1)[C@@H](C)O)[C@@H](C)O)[C@@H](C)CC)C(N)=O)C(=O)O
In the case of B2, the “EC50 hGLP-1R (cAMP formation)” value (human GLP-1 receptor) is reported as 0.0048 nM and the “EC50 hGlucagonR (cAMP formation)” value (human glucagon receptor) is reported as 0.0741 nM.

B3: SEQ ID NO: (70) (peptide)
peptide: H[dS]QGTFTSDLSKQMDERRAKDFIEWLKNGGPSSGAPPPSK([γGlu-Palmitoyl])-NH2
modifications: N-terminus assumed
SMILES: CCCCCCCCCCCCCCCC(=O)N[C@@H](CCC(=O)NCCCC[C@H](NC(=O)[C@H](CO)NC(=O)[C@@H]1CCCN1C(=O)[C@@H]1CCCN1C(=O)[C@@H]1CCCN1C(=O)[C@H](C)NC(=O)CNC(=O)[C@H](CO)NC(=O)[C@H](CO)NC(=O)[C@@H]1CCCN1C(=O)CNC(=O)CNC(=O)[C@H](CC(N)=O)NC(=O)[C@H](CCCCN)NC(=O)[C@H](CC(C)C)NC(=O)[C@H](Cc1c[nH]c2ccccc12)NC(=O)[C@H](CCC(=O)O)NC(=O)[C@@H](NC(=O)[C@H](Cc1ccccc1)NC(=O)[C@H](CC(=O)O)NC(=O)[C@H](CCCCN)NC(=O)[C@H](C)NC(=O)[C@H](CCCNC(=N)N)NC(=O)[C@H](CCCNC(=N)N)NC(=O)[C@H](CCC(=O)O)NC(=O)[C@H](CC(=O)O)NC(=O)[C@H](CCSC)NC(=O)[C@H](CCC(N)=O)NC(=O)[C@H](CCCCN)NC(=O)[C@H](CO)NC(=O)[C@H](CC(C)C)NC(=O)[C@H](CC(=O)O)NC(=O)[C@H](CO)NC(=O)[C@@H](NC(=O)[C@H](Cc1ccccc1)NC(=O)[C@@H](NC(=O)CNC(=O)[C@H](CCC(N)=O)NC(=O)[C@@H](CO)NC(=O)[C@@H](N)Cc1c[nH]cn1)[C@@H](C)O)[C@@H](C)O)[C@@H](C)CC)C(N)=O)C(=O)O
B3 was tested, and the “EC50 hGLP-1R (cAMP formation)” value (human GLP-1 receptor) was 0.005 nM and the “EC50 hGlucagonR (cAMP formation)” value (human glucagon receptor) was 0.0172 nM.

B4: SEQ ID NO: (69) (peptide)
peptide: H[dS]QGTFTSDLSKQMDKRRAQDFIEWLKNGGPSSGAPPPSK([γGlu-Palmitoyl])-NH2
modifications: N-terminus assumed
SMILES: CCCCCCCCCCCCCCCC(=O)N[C@@H](CCC(=O)NCCCC[C@H](NC(=O)[C@H](CO)NC(=O)[C@@H]1CCCN1C(=O)[C@@H]1CCCN1C(=O)[C@@H]1CCCN1C(=O)[C@H](C)NC(=O)CNC(=O)[C@H](CO)NC(=O)[C@H](CO)NC(=O)[C@@H]1CCCN1C(=O)CNC(=O)CNC(=O)[C@H](CC(N)=O)NC(=O)[C@H](CCCCN)NC(=O)[C@H](CC(C)C)NC(=O)[C@H](Cc1c[nH]c2ccccc12)NC(=O)[C@H](CCC(=O)O)NC(=O)[C@@H](NC(=O)[C@H](Cc1ccccc1)NC(=O)[C@H](CC(=O)O)NC(=O)[C@H](CCC(N)=O)NC(=O)[C@H](C)NC(=O)[C@H](CCCNC(=N)N)NC(=O)[C@H](CCCNC(=N)N)NC(=O)[C@H](CCCCN)NC(=O)[C@H](CC(=O)O)NC(=O)[C@H](CCSC)NC(=O)[C@H](CCC(N)=O)NC(=O)[C@H](CCCCN)NC(=O)[C@H](CO)NC(=O)[C@H](CC(C)C)NC(=O)[C@H](CC(=O)O)NC(=O)[C@H](CO)NC(=O)[C@@H](NC(=O)[C@H](Cc1ccccc1)NC(=O)[C@@H](NC(=O)CNC(=O)[C@H](CCC(N)=O)NC(=O)[C@@H](CO)NC(=O)[C@@H](N)Cc1c[nH]cn1)[C@@H](C)O)[C@@H](C)O)[C@@H](C)CC)C(N)=O)C(=O)O
B4 was tested, and the “EC50 hGLP-1R (cAMP formation)” value (human GLP-1 receptor) was 0.0076 nM and the “EC50 hGlucagonR (cAMP formation)” value (human glucagon receptor) was 0.0059 nM.

B5: SEQ ID NO: (73) (peptide)
peptide: H[dS]QGTFTSDLSKQMESRRAQDFIEWLK[Aib]GGPSSGAPPPSK([γGlu-Palmitoyl])-NH2
In the case of B5, the “EC50 hGLP-1R (cAMP formation)” value (human GLP-1 receptor) is reported as 0.0044 nM and the “EC50 hGlucagonR (cAMP formation)” value (human glucagon receptor) is reported as 0.0212 nM.

B6: SEQ ID NO: (77) (peptide)
peptide: H[dS]QGTFTSDLSKQMESRRAQDFIEWLKKGGPSSGAPPPSK([γGlu-Palmitoyl])-NH2
modifications: N-terminus assumed
SMILES: CCCCCCCCCCCCCCCC(=O)N[C@@H](CCC(=O)NCCCC[C@H](NC(=O)[C@H](CO)NC(=O)[C@@H]1CCCN1C(=O)[C@@H]1CCCN1C(=O)[C@@H]1CCCN1C(=O)[C@H](C)NC(=O)CNC(=O)[C@H](CO)NC(=O)[C@H](CO)NC(=O)[C@@H]1CCCN1C(=O)CNC(=O)CNC(=O)[C@H](CCCCN)NC(=O)[C@H](CCCCN)NC(=O)[C@H](CC(C)C)NC(=O)[C@H](Cc1c[nH]c2ccccc12)NC(=O)[C@H](CCC(=O)O)NC(=O)[C@@H](NC(=O)[C@H](Cc1ccccc1)NC(=O)[C@H](CC(=O)O)NC(=O)[C@H](CCC(N)=O)NC(=O)[C@H](C)NC(=O)[C@H](CCCNC(=N)N)NC(=O)[C@H](CCCNC(=N)N)NC(=O)[C@H](CO)NC(=O)[C@H](CCC(=O)O)NC(=O)[C@H](CCSC)NC(=O)[C@H](CCC(N)=O)NC(=O)[C@H](CCCCN)NC(=O)[C@H](CO)NC(=O)[C@H](CC(C)C)NC(=O)[C@H](CC(=O)O)NC(=O)[C@H](CO)NC(=O)[C@@H](NC(=O)[C@H](Cc1ccccc1)NC(=O)[C@@H](NC(=O)CNC(=O)[C@H](CCC(N)=O)NC(=O)[C@@H](CO)NC(=O)[C@@H](N)Cc1c[nH]cn1)[C@@H](C)O)[C@@H](C)O)[C@@H](C)CC)C(N)=O)C(=O)O
B6 was tested, and the “EC50 hGLP-1R (cAMP formation)” value (human GLP-1 receptor) was 0.003 nM and the “EC50 hGlucagonR (cAMP formation)” value (human glucagon receptor) was 0.0372 nM.

B7: SEQ ID NO: (74) (peptide)
peptide: H[dS]QGTFTSDLSKQMESRRAQDFIEWLKNTGPSSGAPPPSK([γGlu-Palmitoyl])-NH2
modifications: N-terminus assumed
SMILES: CCCCCCCCCCCCCCCC(=O)N[C@@H](CCC(=O)NCCCC[C@H](NC(=O)[C@H](CO)NC(=O)[C@@H]1CCCN1C(=O)[C@@H]1CCCN1C(=O)[C@@H]1CCCN1C(=O)[C@H](C)NC(=O)CNC(=O)[C@H](CO)NC(=O)[C@H](CO)NC(=O)[C@@H]1CCCN1C(=O)CNC(=O)[C@@H](NC(=O)[C@H](CC(N)=O)NC(=O)[C@H](CCCCN)NC(=O)[C@H](CC(C)C)NC(=O)[C@H](Cc1c[nH]c2ccccc12)NC(=O)[C@H](CCC(=O)O)NC(=O)[C@@H](NC(=O)[C@H](Cc1ccccc1)NC(=O)[C@H](CC(=O)O)NC(=O)[C@H](CCC(N)=O)NC(=O)[C@H](C)NC(=O)[C@H](CCCNC(=N)N)NC(=O)[C@H](CCCNC(=N)N)NC(=O)[C@H](CO)NC(=O)[C@H](CCC(=O)O)NC(=O)[C@H](CCSC)NC(=O)[C@H](CCC(N)=O)NC(=O)[C@H](CCCCN)NC(=O)[C@H](CO)NC(=O)[C@H](CC(C)C)NC(=O)[C@H](CC(=O)O)NC(=O)[C@H](CO)NC(=O)[C@@H](NC(=O)[C@H](Cc1ccccc1)NC(=O)[C@@H](NC(=O)CNC(=O)[C@H](CCC(N)=O)NC(=O)[C@@H](CO)NC(=O)[C@@H](N)Cc1c[nH]cn1)[C@@H](C)O)[C@@H](C)O)[C@@H](C)CC)[C@@H](C)O)C(N)=O)C(=O)O
B7 was tested, and the “EC50 hGLP-1R (cAMP formation)” value (human GLP-1 receptor) was 0.0396 nM and the “EC50 hGlucagonR (cAMP formation)” value (human glucagon receptor) was 0.0355 nM.
